Values quoted from earlier work, collected in article PMC5075297.

How the values were obtained:
[1] = molecular target: tropoelastin (Homo sapiens) (UniProt P15502)
[2] = molecular target: type I collagen (Homo sapiens) (UniProt P02452)
[3] = molecular target: cellular fibronectin (Homo sapiens) (UniProt P02751)
UniProt P02751, sequence (P02751 32-2477): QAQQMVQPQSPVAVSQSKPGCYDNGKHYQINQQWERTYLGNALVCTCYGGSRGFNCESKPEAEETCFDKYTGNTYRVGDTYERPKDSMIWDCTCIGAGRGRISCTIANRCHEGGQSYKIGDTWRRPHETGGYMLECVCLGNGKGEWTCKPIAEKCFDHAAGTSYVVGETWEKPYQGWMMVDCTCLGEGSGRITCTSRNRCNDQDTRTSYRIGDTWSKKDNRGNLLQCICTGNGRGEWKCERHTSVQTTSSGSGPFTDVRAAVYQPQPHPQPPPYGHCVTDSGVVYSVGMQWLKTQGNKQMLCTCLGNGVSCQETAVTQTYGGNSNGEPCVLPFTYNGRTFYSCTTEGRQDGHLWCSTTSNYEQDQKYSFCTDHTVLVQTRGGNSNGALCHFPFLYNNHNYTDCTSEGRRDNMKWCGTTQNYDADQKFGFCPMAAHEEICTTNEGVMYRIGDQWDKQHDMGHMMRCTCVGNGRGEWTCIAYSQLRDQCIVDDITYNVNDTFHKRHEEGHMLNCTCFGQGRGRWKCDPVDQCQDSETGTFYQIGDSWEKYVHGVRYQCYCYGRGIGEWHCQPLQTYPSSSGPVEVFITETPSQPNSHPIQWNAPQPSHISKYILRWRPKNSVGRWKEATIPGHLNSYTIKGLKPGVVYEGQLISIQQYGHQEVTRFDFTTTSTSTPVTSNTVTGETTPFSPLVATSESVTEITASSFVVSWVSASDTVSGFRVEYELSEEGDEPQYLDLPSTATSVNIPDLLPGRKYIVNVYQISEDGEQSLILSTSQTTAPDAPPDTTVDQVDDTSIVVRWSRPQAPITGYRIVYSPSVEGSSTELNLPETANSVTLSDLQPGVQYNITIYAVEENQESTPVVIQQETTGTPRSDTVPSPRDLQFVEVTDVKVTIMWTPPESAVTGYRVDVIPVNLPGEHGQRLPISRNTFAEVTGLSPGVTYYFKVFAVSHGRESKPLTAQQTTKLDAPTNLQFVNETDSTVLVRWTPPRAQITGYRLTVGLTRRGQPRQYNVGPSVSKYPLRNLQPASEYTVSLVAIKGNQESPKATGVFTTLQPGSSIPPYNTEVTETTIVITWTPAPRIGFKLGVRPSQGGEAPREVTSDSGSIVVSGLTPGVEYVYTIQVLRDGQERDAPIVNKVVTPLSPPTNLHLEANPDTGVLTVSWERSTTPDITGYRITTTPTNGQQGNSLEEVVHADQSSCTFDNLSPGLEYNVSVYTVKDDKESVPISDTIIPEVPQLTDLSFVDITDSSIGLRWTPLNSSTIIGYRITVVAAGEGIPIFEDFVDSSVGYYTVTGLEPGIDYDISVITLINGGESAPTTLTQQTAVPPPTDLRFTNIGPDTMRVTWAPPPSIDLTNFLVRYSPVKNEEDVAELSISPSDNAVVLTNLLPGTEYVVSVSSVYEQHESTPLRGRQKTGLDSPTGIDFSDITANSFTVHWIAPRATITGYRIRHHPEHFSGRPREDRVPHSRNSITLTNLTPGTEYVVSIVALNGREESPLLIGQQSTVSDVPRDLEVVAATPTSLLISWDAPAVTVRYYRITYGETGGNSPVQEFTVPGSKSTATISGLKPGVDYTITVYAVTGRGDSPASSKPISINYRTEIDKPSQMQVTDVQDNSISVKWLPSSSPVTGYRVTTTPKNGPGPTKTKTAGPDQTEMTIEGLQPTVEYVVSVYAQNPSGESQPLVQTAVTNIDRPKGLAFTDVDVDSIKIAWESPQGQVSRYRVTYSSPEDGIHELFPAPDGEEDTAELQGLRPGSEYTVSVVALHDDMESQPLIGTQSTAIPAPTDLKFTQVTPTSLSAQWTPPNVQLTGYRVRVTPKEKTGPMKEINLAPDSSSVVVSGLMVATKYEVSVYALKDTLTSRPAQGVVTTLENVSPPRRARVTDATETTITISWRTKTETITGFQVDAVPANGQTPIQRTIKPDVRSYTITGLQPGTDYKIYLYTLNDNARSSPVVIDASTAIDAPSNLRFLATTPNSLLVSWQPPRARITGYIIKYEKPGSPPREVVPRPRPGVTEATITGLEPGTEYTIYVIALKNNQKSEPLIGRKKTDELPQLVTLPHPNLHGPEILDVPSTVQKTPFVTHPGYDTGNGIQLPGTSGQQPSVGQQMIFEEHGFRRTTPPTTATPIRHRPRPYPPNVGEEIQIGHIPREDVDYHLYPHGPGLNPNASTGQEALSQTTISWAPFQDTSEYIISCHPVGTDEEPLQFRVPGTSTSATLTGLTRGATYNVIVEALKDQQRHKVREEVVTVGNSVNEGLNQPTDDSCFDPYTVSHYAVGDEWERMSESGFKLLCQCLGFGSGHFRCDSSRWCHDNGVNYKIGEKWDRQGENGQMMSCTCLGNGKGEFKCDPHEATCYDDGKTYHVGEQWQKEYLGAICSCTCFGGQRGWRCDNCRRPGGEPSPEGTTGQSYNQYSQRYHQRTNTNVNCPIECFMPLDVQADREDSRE

UniProt P15502, sequence (P15502 27-786): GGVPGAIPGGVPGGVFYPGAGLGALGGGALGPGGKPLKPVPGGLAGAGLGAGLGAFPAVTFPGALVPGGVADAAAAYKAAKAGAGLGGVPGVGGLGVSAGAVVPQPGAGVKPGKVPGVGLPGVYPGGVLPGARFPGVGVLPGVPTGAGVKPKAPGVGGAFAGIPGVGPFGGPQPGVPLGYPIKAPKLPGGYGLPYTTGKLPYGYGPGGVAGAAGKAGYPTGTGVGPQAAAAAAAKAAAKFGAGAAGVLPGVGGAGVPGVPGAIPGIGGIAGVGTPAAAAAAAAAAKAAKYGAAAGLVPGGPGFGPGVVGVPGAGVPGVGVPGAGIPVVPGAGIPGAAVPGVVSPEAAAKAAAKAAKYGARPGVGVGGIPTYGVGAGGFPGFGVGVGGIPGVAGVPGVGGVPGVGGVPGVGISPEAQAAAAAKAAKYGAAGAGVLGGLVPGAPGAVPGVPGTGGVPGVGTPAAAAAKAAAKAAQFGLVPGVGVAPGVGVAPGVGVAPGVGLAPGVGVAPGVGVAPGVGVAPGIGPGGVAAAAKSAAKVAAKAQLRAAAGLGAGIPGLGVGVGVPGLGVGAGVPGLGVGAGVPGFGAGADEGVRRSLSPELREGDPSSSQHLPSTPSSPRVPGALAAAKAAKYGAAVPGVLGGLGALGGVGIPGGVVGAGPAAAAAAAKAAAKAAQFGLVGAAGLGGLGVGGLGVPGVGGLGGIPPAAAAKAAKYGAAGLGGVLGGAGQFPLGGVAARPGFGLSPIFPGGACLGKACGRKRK

- Kd [1]: 1.9 nM
- Kd [2]: 5.2 nM
- Kd [3]: 2.5 nM
Substance: LOX (from UniProt P28300)
